Test results as given in the supplement of paper PMC5998384.

Legend:
HeLa Kyoto [1] = experiment: solubility change mitosis vs G1/S (difference of NP-40 vs SDS log2 ratios) (log2 ratio difference); higher = more soluble in mitosis
HeLa Kyoto [2] = experiment: solubility in G1/S (NP-40 vs SDS abundance) (log2 ratio); higher = more soluble; conditions: cell cycle stage: G1/S
HeLa Kyoto [3] = experiment: thermal stability score vs G1/S (z-score of summed log2 fold changes over temperatures); higher = more thermally stable than in G1/S
[4] = cell cycle stage: early G1 (4.5 h after nocodazole release)
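Throughout, for solubility change mitosis vs G1/S (difference of NP-40 vs SDS log2 ratios): synchronized HeLa Kyoto cells (double thymidine block for G1/S, nocodazole release for mitosis), protein amounts in NP-40 versus SDS lysates quantified by mass spectrometry, three biological replicates.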
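Throughout, for solubility in G1/S (NP-40 vs SDS abundance): HeLa Kyoto cells arrested at G1/S by double thymidine block, proteins quantified by TMT10plex mass spectrometry in mild NP-40 versus SDS extracts, three biological replicates.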
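Throughout, for thermal stability score vs G1/S (z-score of summed log2 fold changes over temperatures): synchronized HeLa Kyoto cells, proteins quantified by TMT10plex mass spectrometry, three biological replicates, mitosis taken 0.5 h after nocodazole release, G1/S directly after double thymidine block.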

Row | Substance | solubility change mitosis (log2) (HeLa Kyoto [1]) | solubility in G1/S (log2) (HeLa Kyoto [2]) | thermal stability score (HeLa Kyoto [3]; [4]) | thermal stability score (HeLa Kyoto [3]; cell cycle stage: mitosis)
1 | MGFGSDLKNSHEAVLKLQDWELRLLETVKKFMALRIKSDKEYASTLQNLCNQVDKESTVQMNYVSNVSKSWLLMIQQTEQLSRIMKTHAEDLNSGPLHRLTMMIKDKQQVKKSYIGVHQQIEAEMIKVTKTELEKLKCSYRQLIKEMNSAKEKYKEALAKGKETEKAKERYDKATMKLHMLHNQYVLALKGAQLHQNQYYDITLPLLLDSLQKMQEEMIKALKGIFDEYSQITSLVTEEIVNVHKEIQMSVEQIDPSTEYNNFIDVHRTTAAKEQEIEFDTSLLEENENLQANEIMWNNLTAESLQVMLKTLAEELMQTQQMLLNKEEAVLELEKRIEESSETCEKKSDIVLLLSQKQALEELKQSVQQLRCTEAKFSAQKELLEQKVQENDGKEPPPVVNYEEDARSVTSMERKERLSKFESIRHSIAGIIRSPKSALGSSALSDMISISEKPLAEQDWYHGAIPRIEAQELLKKQGDFLVRESHGKPGEYVLSVYSDGQRRHFIIQYVDNMYRFEGTGFSNIPQLIDHHYTTKQVITKKSGVVLLNPIPKDKKWILSHEDVILGELLGKGNFGEVYKGTLKDKTSVAVKTCKEDLPQELKIKFLQEAKILKQYDHPNIVKLIGVCTQRQPVYIIMELVSGGDFLTFLRRKKDELKLKQLVKFSLDAAAGMLYLESKNCIHRDLAARNCLVGENNVLKISDFGMSRQEDGGVYSSSGLKQIPIKWTAPEALNYGRYSSESDVWSFGILLWETFSLGVCPYPGMTNQQAREQVERGYRMSAPQHCPEDISKIMMKCWDYKPENRPKFSELQKELTIIKRKLT [FER] | -0.106 | -0.0779 | -0.138 | -0.342
2 | MAQVSINNDYSEWDLSTDAGERARLLQSPCVDTAPKSEWEASPGGLDRGTTSTLGAIFIVVNACLGAGLLNFPAAFSTAGGVAAGIALQMGMLVFIISGLVILAYCSQASNERTYQEVVWAVCGKLTGVLCEVAIAVYTFGTCIAFLIIIGDQQDKIIAVMAKEPEGASGPWYTDRKFTISLTAFLFILPLSIPREIGFQKYASFLSVVGTWYVTAIVIIKYIWPDKEMTPGNILTRPASWMAVFNAMPTICFGFQCHVSSVPVFNSMQQPEVKTWGGVVTAAMVIALAVYMGTGICGFLTFGAAVDPDVLLSYPSEDMAVAVARAFIILSVLTSYPILHFCGRAVVEGLWLRYQGVPVEEDVGRERRRRVLQTLVWFLLTLLLALFIPDIGKVISVIGGLAACFIFVFPGLCLIQAKLSEMEEVKPASWWVLVSYGVLLVTLGAFIFGQTTANAIFVDLLA [SLC38A7] | -0.113 | -0.213 | -4.08 | -4.26
3 | MGFNLTFHLSYKFRLLLLLTLCLTVVGWATSNYFVGAIQEIPKAKEFMANFHKTLILGKGKTLTNEASTKKVELDNCPSVSPYLRGQSKLIFKPDLTLEEVQAENPKVSRGRYRPQECKALQRVAILVPHRNREKHLMYLLEHLHPFLQRQQLDYGIYVIHQAEGKKFNRAKLLNVGYLEALKEENWDCFIFHDVDLVPENDFNLYKCEEHPKHLVVGRNSTGYRLRYSGYFGGVTALSREQFFKVNGFSNNYWGWGGEDDDLRLRVELQRMKISRPLPEVGKYTMVFHTRDKGNEVNAERMKLLHQVSRVWRTDGLSSCSYKLVSVEHNPLYINITVDFWFGA [B4GALT4] | -0.14 | 0.167 | -0.773 | -0.781
4 | MSSEMLPAFIETSNVDKKQGINEDQEESQKPRLGEGCEPISKRQMKKLIKQKQWEEQRELRKQKRKEKRKRKKLERQCQMEPNSDGHDRKRVRRDVVHSTLRLIIDCSFDHLMVLKDIKKLHKQIQRCYAENRRALHPVQFYLTSHGGQLKKNMDENDKGWVNWKDIHIKPEHYSELIKKEDLIYLTSDSPNILKELDESKAYVIGGLVDHNHHKGLTYKQASDYGINHAQLPLGNFVKMNSRKVLAVNHVFEIILEYLETRDWQEAFFTILPQRKGAVPTDKACESASHDNQSVRMEEGGSDSDSSEEEYSRNELDSPHEEKQDKENHTESTVNSLPH [TRMT10A] | -0.0488 | -0.0218 | 0.883 | 0.552
5 | MTNPWEEKVCKMAQTSLLQGKQFYCREWVFHKLQHCLQEKSNCCNSAVNAPSLVMNSGNNASGVSGKGAAWGVLLVGGPGSGKTALCTELLWPSSPASLQRGLHRQALAFHFCKAQDSDTLCVGGFIRGLVAQICRSGLLQGYEDKLRDPAVQSLLQPGECERNPAEAFKRCVLLPLLGMKPPQQSLYLLVDSVDEGCNITEGEQTSTSLSGTVAALLAGHHEFFPPWLLLLCSARKQSKAVTKMFTGFRKISLDDLRKAYIVKDVQQYILHRLDQEEALRQHLTKETAEMLNQLHIKSSGCFLYLERVLDGVVENFIMLREIRDIPGTLNGLYLWLCQRLFVRKQFAKVQPILNVILAACRPLTITELYHAVWTKNMSLTLEDFQRKLDILSKLLVDGLGNTKILFHYSFAEWLLDVKHCTQKYLCNAAEGHRMLAMSYTCQAKNLTPLEAQEFALHLINSNLQLETAELALWMIWNGTPVRDSLSTLIPKEQEVLQLLVKAGAHVNSEDDRTSCIVRQALEREDSIRTLLDNGASVNQCDSNGRTLLANAAYSGSLDVVNLLVSRGADLEIEDAHGHTPLTLAARQGHTKVVNCLIGCGANINHTDQDGWTALRSAAWGGHTEVVSALLYAGVKVDCADADSRTALRAAAWGGHEDIVLNLLQHGAEVNKADNEGRTALIAAAYMGHREIVEHLLDHGAEVNHEDVDGRTALSVAALCVPASKGHASVVSLLIDRGAEVDHCDKDGMTPLLVAAYEGHVDVVDLLLEGGADVDHTDNNGRTPLLAAASMGHASVVNTLLFWGAAVDSIDSEGRTVLSIASAQGNVEVVRTLLDRGLDENHRDDAGWTPLHMAAFEGHRLICEALIEQGARTNEIDNDGRIPFILASQEGHYDCVQILLENKSNIDQRGYDGRNALRVAALEGHRDIVELLFSHGADVNCKDADGRPTLYILALENQLTMAEYFLENGANVEASDAEGRTALHVSCWQGHMEMVQVLIAYHADVNAADNEKRSALQSAAWQGHVKVVQLLIEHGAVVDHTCNQGATALCIAAQEGHIDVVQVLLEHGADPNHADQFGRTAMRVAAKNGHSQIIKLLEKYGASSLNGCSPSPVHTMEQKPLQSLSSKVQSLTIKSNSSGSTGGGDMQPSLRGLPNGPTHAFSSPSESPDSTVDRQKSSLSNNSLKSSKNSSLRTTSSTATAQTVPIDSFHNLSFTEQIQQHSLPRSRSRQSIVSPSSTTQSLGQSHNSPSSEFEWSQVKPSLKSTKASKGGKSENSAKSGSAGKKAKQSNSSQPKVLEYEMTQFDRRGPIAKSGTAAPPKQMPAESQCKIMIPSAQQEIGRSQQQFLIHQQSGEQKKRNGIMTNPNYHLQSNQVFLGRVSVPRTMQDRGHQEVLEGYPSSETELSLKQALKLQIEGSDPSFNYKKETPL [ANKRD50] | -0.256 | 0.02 | -0.667 | -0.543
6 | TNS1 | 0.117 | -0.0779 | 0.323 | 1.79
